The numbers were not newly measured in article PMC6551275, which cites them from elsewhere.

The series addresses UBQLN2 UBA (Homo sapiens) (UniProt Q9UHD9).

UBQLN2 UBL, sequence (Q9UHD9 33-107): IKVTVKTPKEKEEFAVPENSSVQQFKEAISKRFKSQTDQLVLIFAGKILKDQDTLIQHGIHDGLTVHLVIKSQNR
UBQLN2 UBA (Homo sapiens), sequence (Q9UHD9 578-624): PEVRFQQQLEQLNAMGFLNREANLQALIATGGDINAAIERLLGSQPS

Consider UBQLN2 UBL (from UniProt Q9UHD9), for which the dissociation constant (Kd) was 175 µM.

What is called Kd is a measure of binding affinity in units of concentration.
